Experimental findings from US8642284B1, “Methods for identifying agents that alter NAD-dependent deacetylation activity of a SIR2 protein” (Massachusetts Institute of Technology, priority 1999, dated 2014) are described below.

B1: P285A: recombinant mSir2α core domain mutant, residue changed to alanine (protein)
chain: MADEVALALQAAGSPSAAAAMEAASQPADEPLRKRPRRDGPGLGRSPGEPSAAVAPAAAGCEAASAAAPAALWREAAGAAASAEREAPATAVAGDGDNGSGLRREPRAADDFDDDEGEEEDEAAAAAAAAAIGYRDNLLLTDGLLTNGFHSCESDDDDRTSHASSSDWTPRPRIGPYTFVQQHLMIGTDPRTILKDLLPETIPPPELDDMTLWQIVINILSEPPKRKKRKDINTIEDAVKLLQECKKIIVLTGAGVSVSCGIPDFRSRDGIYARLAVDFPDLPDAQAMFDIEYFRKDPRPFFKFAKEIYPGQFQPSLCHKFIALSDKEGKLLRNYTQNIDTLEQVAGIQRILQCHGSFATASCLICKYKVDCEAVRGDIFNQVVPRCPRCPADEPLAIMKPEIVFFGENLPEQFHRAMKYDKDEVDLLIVIGSSLKVRPVALIPSSIPHEVPQILINREPLPHLHFDVELLGDCDVIINELCHRLGGEYAKLCCNPVKLSEITEKPPRPQKELVHLSELPPTPLHISEDSSSPERTVPQDSSVIATLVDQATNNNVNDLEVSESSCVEEKPQEVQTSRNVENINVENPDFKAVGSSTADKNERTSVAETVRKCWPNRLAKEQISKRLEGNQYLFVPPNRYIFHGAEVYSDSEDDVLSSSSCGSNSDSGTCQSPSLEEPLEDESEIEEFYNGLEDDTERPECAGGSGFGADGGDQEVVNEAIATRQELTDVNYPSDKS
modifications: left off: small tags and cut ends
notes: recombinant mSir2α core domain mutant, residue changed to alanine
B2: G255A: recombinant mSir2α core domain mutant, residue changed to alanine (protein)
chain: MADEVALALQAAGSPSAAAAMEAASQPADEPLRKRPRRDGPGLGRSPGEPSAAVAPAAAGCEAASAAAPAALWREAAGAAASAEREAPATAVAGDGDNGSGLRREPRAADDFDDDEGEEEDEAAAAAAAAAIGYRDNLLLTDGLLTNGFHSCESDDDDRTSHASSSDWTPRPRIGPYTFVQQHLMIGTDPRTILKDLLPETIPPPELDDMTLWQIVINILSEPPKRKKRKDINTIEDAVKLLQECKKIIVLTGAAVSVSCGIPDFRSRDGIYARLAVDFPDLPDPQAMFDIEYFRKDPRPFFKFAKEIYPGQFQPSLCHKFIALSDKEGKLLRNYTQNIDTLEQVAGIQRILQCHGSFATASCLICKYKVDCEAVRGDIFNQVVPRCPRCPADEPLAIMKPEIVFFGENLPEQFHRAMKYDKDEVDLLIVIGSSLKVRPVALIPSSIPHEVPQILINREPLPHLHFDVELLGDCDVIINELCHRLGGEYAKLCCNPVKLSEITEKPPRPQKELVHLSELPPTPLHISEDSSSPERTVPQDSSVIATLVDQATNNNVNDLEVSESSCVEEKPQEVQTSRNVENINVENPDFKAVGSSTADKNERTSVAETVRKCWPNRLAKEQISKRLEGNQYLFVPPNRYIFHGAEVYSDSEDDVLSSSSCGSNSDSGTCQSPSLEEPLEDESEIEEFYNGLEDDTERPECAGGSGFGADGGDQEVVNEAIATRQELTDVNYPSDKS
modifications: left off: small tags and cut ends
notes: as for B1
B3: G253A: recombinant mSir2α core domain mutant, glycine 253 changed to alanine (protein)
chain: MADEVALALQAAGSPSAAAAMEAASQPADEPLRKRPRRDGPGLGRSPGEPSAAVAPAAAGCEAASAAAPAALWREAAGAAASAEREAPATAVAGDGDNGSGLRREPRAADDFDDDEGEEEDEAAAAAAAAAIGYRDNLLLTDGLLTNGFHSCESDDDDRTSHASSSDWTPRPRIGPYTFVQQHLMIGTDPRTILKDLLPETIPPPELDDMTLWQIVINILSEPPKRKKRKDINTIEDAVKLLQECKKIIVLTAAGVSVSCGIPDFRSRDGIYARLAVDFPDLPDPQAMFDIEYFRKDPRPFFKFAKEIYPGQFQPSLCHKFIALSDKEGKLLRNYTQNIDTLEQVAGIQRILQCHGSFATASCLICKYKVDCEAVRGDIFNQVVPRCPRCPADEPLAIMKPEIVFFGENLPEQFHRAMKYDKDEVDLLIVIGSSLKVRPVALIPSSIPHEVPQILINREPLPHLHFDVELLGDCDVIINELCHRLGGEYAKLCCNPVKLSEITEKPPRPQKELVHLSELPPTPLHISEDSSSPERTVPQDSSVIATLVDQATNNNVNDLEVSESSCVEEKPQEVQTSRNVENINVENPDFKAVGSSTADKNERTSVAETVRKCWPNRLAKEQISKRLEGNQYLFVPPNRYIFHGAEVYSDSEDDVLSSSSCGSNSDSGTCQSPSLEEPLEDESEIEEFYNGLEDDTERPECAGGSGFGADGGDQEVVNEAIATRQELTDVNYPSDKS
modifications: left off: small tags and cut ends
notes: recombinant mSir2α core domain mutant, glycine 253 changed to alanine
B4: S257A: recombinant mSir2α core domain mutant, residue changed to alanine (protein)
chain: MADEVALALQAAGSPSAAAAMEAASQPADEPLRKRPRRDGPGLGRSPGEPSAAVAPAAAGCEAASAAAPAALWREAAGAAASAEREAPATAVAGDGDNGSGLRREPRAADDFDDDEGEEEDEAAAAAAAAAIGYRDNLLLTDGLLTNGFHSCESDDDDRTSHASSSDWTPRPRIGPYTFVQQHLMIGTDPRTILKDLLPETIPPPELDDMTLWQIVINILSEPPKRKKRKDINTIEDAVKLLQECKKIIVLTGAGVAVSCGIPDFRSRDGIYARLAVDFPDLPDPQAMFDIEYFRKDPRPFFKFAKEIYPGQFQPSLCHKFIALSDKEGKLLRNYTQNIDTLEQVAGIQRILQCHGSFATASCLICKYKVDCEAVRGDIFNQVVPRCPRCPADEPLAIMKPEIVFFGENLPEQFHRAMKYDKDEVDLLIVIGSSLKVRPVALIPSSIPHEVPQILINREPLPHLHFDVELLGDCDVIINELCHRLGGEYAKLCCNPVKLSEITEKPPRPQKELVHLSELPPTPLHISEDSSSPERTVPQDSSVIATLVDQATNNNVNDLEVSESSCVEEKPQEVQTSRNVENINVENPDFKAVGSSTADKNERTSVAETVRKCWPNRLAKEQISKRLEGNQYLFVPPNRYIFHGAEVYSDSEDDVLSSSSCGSNSDSGTCQSPSLEEPLEDESEIEEFYNGLEDDTERPECAGGSGFGADGGDQEVVNEAIATRQELTDVNYPSDKS
modifications: left off: small tags and cut ends
notes: as for B1
B5: I262A: recombinant mSir2α core domain mutant, residue changed to alanine (protein)
chain: MADEVALALQAAGSPSAAAAMEAASQPADEPLRKRPRRDGPGLGRSPGEPSAAVAPAAAGCEAASAAAPAALWREAAGAAASAEREAPATAVAGDGDNGSGLRREPRAADDFDDDEGEEEDEAAAAAAAAAIGYRDNLLLTDGLLTNGFHSCESDDDDRTSHASSSDWTPRPRIGPYTFVQQHLMIGTDPRTILKDLLPETIPPPELDDMTLWQIVINILSEPPKRKKRKDINTIEDAVKLLQECKKIIVLTGAGVSVSCGAPDFRSRDGIYARLAVDFPDLPDPQAMFDIEYFRKDPRPFFKFAKEIYPGQFQPSLCHKFIALSDKEGKLLRNYTQNIDTLEQVAGIQRILQCHGSFATASCLICKYKVDCEAVRGDIFNQVVPRCPRCPADEPLAIMKPEIVFFGENLPEQFHRAMKYDKDEVDLLIVIGSSLKVRPVALIPSSIPHEVPQILINREPLPHLHFDVELLGDCDVIINELCHRLGGEYAKLCCNPVKLSEITEKPPRPQKELVHLSELPPTPLHISEDSSSPERTVPQDSSVIATLVDQATNNNVNDLEVSESSCVEEKPQEVQTSRNVENINVENPDFKAVGSSTADKNERTSVAETVRKCWPNRLAKEQISKRLEGNQYLFVPPNRYIFHGAEVYSDSEDDVLSSSSCGSNSDSGTCQSPSLEEPLEDESEIEEFYNGLEDDTERPECAGGSGFGADGGDQEVVNEAIATRQELTDVNYPSDKS
modifications: left off: small tags and cut ends
notes: as for B1

This assay deals with histone H2B. Briefly: ADP-ribosylation activity of wild type and mutant recombinant mSir2α proteins on histones. The class given is biochemical, calf. The settings on record: 10 μg recombinant protein; H2B radioactivity, wild type = 100%. The method, then: Site-directed mutagenesis of mSIR2α core domain was performed with the GeneEditor™ system (Promega, Madison, Wis.) according to the procedure provided by the manufacturer. The mutant recombinant proteins were prepared in the same way as described above.
The typical reaction was performed in 50 or 100 μl of the buffer containing 5 mM Tris-HCl [pH8.0 or 9.0], 4 mM MgCl2, 0.2 mM DTT, 1 μM cold β-NAD^+ (SIGMA®) and 8 μCi nicotinamide adenine dinucleotide 5′[α-^32P]triphosphate (NAD) as a donor of ADP-ribose (˜1000 Ci/mmol, Amersham Pharmacia Biotech). To check the sensitivity to poly- or mono-ADP-ribosylation inhibitors, 3-aminobenzamide (ICN Pharmaceuticals, CA), benzamide, novobiocin and coumermycin A1 (SIGMA®) were added to the reactions prior to adding Sir2 proteins, respectively. The wild type or mutant recombinant proteins (0.5-1 μg for ySir2p and 10 μg of mSir2α) were added with 4 μg of each histone purchased from Roche Molecular Biochemicals (Indianapolis, Ind.). For the peptide experiments, 5-10 μg of unacetylated or acetylated N-terminal tail peptides (amino acids 1-20) of H3 and H4 purchased from Upstate Biotechnology™ (Lake Placid, N.Y.) were used as substrates of the yeast and mouse Sir2 recombinant proteins.
To analyze histone modification, 25 μl of 100% trichloroacetic acid (TCA) solution was mixed to the reaction mixture and left on ice for 15 min. The protein precipitates were centrifuged at 4° C. and washed with 5 or 20% TCA solution twice. The pellets were dissolved in 15 μl of Leammli's sample buffer and boiled for 1.5 min. The proteins were electrophoresed in a 10-20% gradient SDS-PAGE gel. The gel was stained with COOMASSIE® Brilliant Blue R-250 (GibcoBRL Life Technologies™, Frederick, Md.) to check equal loading of histones, dried, and exposed to KODAK® X-OMAT film.
Aliquots of recombinant protein (10 μg) of the wild type recombinant mSir2α (WT), the pET control pET, and the mutant proteins (G253A, G255A, S257A, I262A, F265A, R266A, G270A, P285A, T336A, H355A) were incubated with H2B or H3. […] All of the mutations of highly conserved residues dramatically affected the mono-ADP-ribosylation activity of mSir2α (FIG. 6B). The results were similar using H2B or H3.
The radioactivity of H2B modified by the wild type is assigned to 100% and other data were normalized according to the wild type activity and blots quantitated by Phosphorimaging. The averages and the standard deviations were calculated from two independent experiments. In the core domain of ySir2p, mutations on highly conserved residues also affected the mono-ADP-ribosylation activity. Therefore, the core domain of Sir2 proteins contain the catalytic activity of mono-ADP-ribosylation and the evolutionarily conserved residues in the core domain are essential for this activity.
In the case of B1, the “mono-ADP-ribosylation activity compared to the wild type activity” value is reported as 5%. For B2 the value was “completely abolished the activity”; for B3, “completely abolished the activity”; for B4, “completely abolished the activity”. For B5, the “mono-ADP-ribosylation activity compared to the wild type activity” value is reported as “completely abolished the activity”.
